The target in this test is T1, Papain (E.C.3.4.22.2, from papaya latex) (papaya, UniProt P00784 134-345).
T1 chain: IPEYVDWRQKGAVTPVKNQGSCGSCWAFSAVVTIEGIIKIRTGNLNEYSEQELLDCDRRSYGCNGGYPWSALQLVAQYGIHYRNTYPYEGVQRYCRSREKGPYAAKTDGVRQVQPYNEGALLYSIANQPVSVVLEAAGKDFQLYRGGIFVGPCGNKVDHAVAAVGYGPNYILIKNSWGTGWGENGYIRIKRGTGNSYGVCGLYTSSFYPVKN

For orientation: Ki means a measure of affinity in units of concentration, obtained from inhibition or displacement.

B1: tomato cystatin SlCYS8 (natural protein)
chain: NPGGITNVPFPNLPQFKDLARFAVQDYNKKENAHLEFVENLNVKEQVVAGIIYYITLVATDAGKKKIYETKILVKGWENFKEVQEFKLVGDATK
Consider B1, for which the affinity corresponds to a Ki of 14.7 nM.

(Values after article doi:10.1101/2021.07.22.453419 (2021).)
